In assay [1] the target is T1, Biotin PSGL-1(42-62) F53A peptide (C-terminal Lys-biotin).
T1 peptide: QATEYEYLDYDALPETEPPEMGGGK
Nature of the assay: ELISA, streptavidin-bound Ala peptide. A general note: ELISA stands for enzyme-linked immunosorbent assay.

Assay [2] concerns the target T1, Biotin PSGL-1(42-62) F53A peptide. Kind of assay: ELISA; against wild-type PSGL-1 42-62.
The target of the next assay is T2, E58A (C-terminal Lys-biotin).
T2 construct: alanine-scan peptide; also called Biotin PSGL-1(42-62) E58A peptide; 58E
T2 peptide: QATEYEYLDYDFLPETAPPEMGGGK
Kind of assay: alanine-scan ELISA, streptavidin-immobilized biotin peptide.

Assay [3] deals with T3, Biotin PSGL-1(42-62) Y51A peptide (C-terminal Lys-biotin).
T3 peptide: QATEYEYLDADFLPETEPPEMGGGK
Described as above.

The target of a further assay is T4, E61A (C-terminal Lys-biotin).
T4 construct: alanine-scan peptide; also called Biotin PSGL-1(42-62) E61A peptide; 61E
T4 peptide: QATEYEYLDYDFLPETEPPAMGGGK
The assay is described as above.

In the next assay the target is T5, Y48A (C-terminal Lys-biotin).
T5 construct: alanine-scan peptide; also called Biotin PSGL-1(42-62) Y48A peptide; 48Y
T5 peptide: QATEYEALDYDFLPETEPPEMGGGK
The description is as above.

For a further assay, the target named is T6, P60A (C-terminal Lys-biotin).
T6 construct: alanine-scan peptide; also called Biotin PSGL-1(42-62) P60A peptide; 60P
T6 peptide: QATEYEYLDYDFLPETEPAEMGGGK
The description is as above.

For the next assay, the target named is T7, Q42A (C-terminal Lys-biotin).
T7 construct: alanine-scan peptide; also called Biotin PSGL-1(42-62) Q42A peptide; 42Q
T7 peptide: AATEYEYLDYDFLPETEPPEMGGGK
Described as above.

A further assay has as its target T8, T44A (C-terminal Lys-biotin).
T8 construct: alanine-scan peptide; also called Biotin PSGL-1(42-62) T44A peptide; 44T
T8 peptide: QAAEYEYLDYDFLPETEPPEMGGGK
Described as above.

The target in the next assay is T9, P59A (C-terminal Lys-biotin).
T9 construct: alanine-scan peptide; also called Biotin PSGL-1(42-62) P59A peptide; 59P
T9 peptide: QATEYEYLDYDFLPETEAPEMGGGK
The description is as above.

The target in assay [4] is T10, Biotin PSGL-1(42-62) Y46A peptide (C-terminal Lys-biotin).
T10 peptide: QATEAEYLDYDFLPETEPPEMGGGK
Described as above.

The target in another assay is T11, E47A (C-terminal Lys-biotin).
T11 construct: alanine-scan peptide; also called Biotin PSGL-1(42-62) E47A peptide; 47E
T11 peptide: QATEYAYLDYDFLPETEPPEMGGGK
The assay is described as above.

The target in a further assay is T12, T57A (C-terminal Lys-biotin).
T12 construct: alanine-scan peptide; also called Biotin PSGL-1(42-62) T57A peptide; 57T
T12 peptide: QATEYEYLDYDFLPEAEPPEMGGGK
The description is as above.

Assay [5] deals with T13, Biotin PSGL-1(42-62) E45A peptide (C-terminal Lys-biotin).
T13 peptide: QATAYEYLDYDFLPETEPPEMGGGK
The description is as above.

A further assay has as its target T14, M62A (C-terminal Lys-biotin).
T14 construct: alanine-scan peptide; also called Biotin PSGL-1(42-62) M62A peptide; 62M
T14 peptide: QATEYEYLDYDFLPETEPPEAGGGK
The assay is described as above.

The target in assay [6] is T15, Biotin PSGL-1(105-125) peptide (human, N-terminal acetyl; C-terminal Lys-biotin).
T15 peptide: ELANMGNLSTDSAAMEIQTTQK
Nature of the assay: ELISA, streptavidin-immobilized biotin peptide [cont.]. The procedure: (§1) A typical ELISA experiment involved binding of a single concentration or serially diluted mAb in assay buffer (3% BSA in PBS containing 0.05% Tween®20, pH 7.4) onto BSA blocked high binding microtiter plate half-wells (Corning Cat. #3690), which contained PSGL-1 protein or streptavidin-immobilized biotin peptide. After incubation for 45 min. at 37° C., the plate was washed 3 times with wash buffer (PBS containing 0.05% Tween®20, pH 7.4), and an appropriate HRP-conjugated secondary antibody added (25 ul/well) (HRP goat anti-mouse or anti-human IgG). After 45 min. incubation at 37° C., the plate was washed and antibody bound to plate-immobilized target was determined at A450 nm using HRP substrate (3,3′5,5′-tetramethylbenzidine (TMB)). For each antibody, duplicate values were averaged and assay background subtracted.

Assay [7] addresses T16, Biotin PSGL-1(290-310) peptide (human, N-terminal acetyl; C-terminal Lys-biotin).
T16 peptide: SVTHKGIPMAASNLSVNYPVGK
Described as above. As to the method:
as §1

The target in assay [8] is T17, Biotin PSGL-1(42-62) L49A peptide (C-terminal Lys-biotin).
T17 peptide: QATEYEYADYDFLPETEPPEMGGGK
Nature of the assay: ELISA, streptavidin-bound Ala peptide.

The next assay deals with T18, PSGL-1(49-56)-Biotin (human, UniProt Q14242).
T18 construct: synthetic peptide; also called short PSGL-1 49-56 peptide with C-terminal biotin
T18 peptide (looked up): LDYDFLPE-biotin
Kind of assay: ELISA, plate-immobilized biotin peptide.

For assay [9], the target named is T3, Biotin PSGL-1(42-62) Y51A peptide. Nature of the assay: ELISA; against wild-type PSGL-1 42-62.
Assay [10] addresses T17, Biotin PSGL-1(42-62) L49A peptide. Kind of assay: ELISA; against wild-type PSGL-1 42-62.
Assay [11] deals with T19, Biotin PSGL-1(42-62) L54A peptide (C-terminal Lys-biotin).
T19 peptide: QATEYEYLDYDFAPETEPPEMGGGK
Kind of assay: ELISA, streptavidin-bound Ala peptide.

No end group written: not given here.

As a reminder, the EC50 is the concentration that produces a half-maximal response. What is called EC50 (read off the curve) is the concentration giving half of the maximal effect.

B1: 19I01 (antibody, V domains shown)
VH: EVQLVESGGGLVKPGGSRKLSCAASGFTFSDYGMHWVRQAPEKGLEWVAYISSGSSTIYYADTVKGRFTISRDNAKNTLFLQMTSLRSEDTAMYYCARGVDGYWGQGTTLTVSS
VL: DVVMTQTPLSLPVSLGDQASISCRSSQSLVHSNGNTYLHWYLQKPGQSPKFLIYKVSNRFSGVPDRFSGSGSGTDFTLKISRVEAEDLGVYFCSQTTHVPLTFGAGTKLELK
notes: From mouse immunisation; only variable domains given; also called 19101
As to B1, the midpoint of the response in [1], the EC50, lay at 2.95 nM. Also, the EC50Ala/EC50 wt in assay [2] came to 24.6 fold.

B2: 18F02 (antibody, V domains shown)
VH: QVQLQQPGAELVKPGASVKLSCKASGYTFTSYWMHWVKQRPGQGLEWIGMIHPNSGRTNYNEKFKSKATLTVDKSSSTAYMQLSSLTSEDSAVYYCARSDYWGQGTTLTVSS
VL: DIVMTQAAFSNPVTLGTSASISCRSSKSLLHSDGITYLYWFLQRPGQSPQLLIYRMSNLASGVPDRFSGSGSGTDFTLRISRVEAEDVGVYYCAQMLEFPRTFGGGTKLEIK
notes: From mouse immunisation; only variable domains given
Regarding B2, the EC50 in assay [1] amounted to 7.1 nM. The same molecule came in with an EC50Ala/EC50 wt in assay [2] of 59.2 fold. Further, the binding result (with E58A; in assay [3]; with E61A; in the assay with Y48A; in the assay with P60A; with Q42A) was “binds” in each case. Moreover, the binding result (with T44A; in the assay with P59A; in assay [4]; with E47A; in the assay with T57A; in assay [5]) was “binds” in each case. Besides, the binding result is listed as “binds” with M62A, “no binding (tested: 10 nM)” in assay [6] and “no binding (tested: 10 nM)” in [7].

B3: 18K07 (antibody, V domains shown)
VH: QIQLVQSGPELKKPGETVKISCEASGYTFTTYGMNWVKQAPGKGLKWMGWINTYSGVPTYADDFQGRFAFSVETSATTAYLQINNLKNEDAATYFCARSDDTYYGFAYWGQGTLVTVSA
VL: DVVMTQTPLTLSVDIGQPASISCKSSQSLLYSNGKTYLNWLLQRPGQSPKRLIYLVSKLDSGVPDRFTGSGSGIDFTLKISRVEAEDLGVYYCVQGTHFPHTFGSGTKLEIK
notes: as for B2
In the case of B3, the binding result in assay [6] and in assay [7] was “no binding (tested: 10 nM)” in each case.

B4: 16L15 (antibody, V domains shown)
VH: DVKLVESGGGLVKLGGSLKLSCAASGFTFSSYYMSWVRQTPEKRLEWVATISNGGGSTYYPDSVKDRFTISRDNAKNTLYLQMSSLNSEDTAVYYCAKPLYYSNPWFAYWGQGTLVTVSA
VL: DVLLTQTPLSLPVSLGDQASISCRSSQSIVHSNGNTYLEWYLQKPGQSPKLLIYKVSNRFSGVPDRFSGSGSGTDFTLKISRVEAEDLGVYYCFQGSHVPRTFGGGTKLEIK
notes: as for B2
For the molecule B4, the response in assay [8] was half-maximal at 3.43 nM (EC50). In addition, the binding result with PSGL-1(49-56)-Biotin is given as “no binding (tested: Log M -7.7 (about 20 nM))”. The EC50Ala/EC50 wt in assay [9] was 9.3 fold; in [10] it was 3.6 fold.

B5: 9F9 (antibody, V domains shown)
VH: EVQLVETGGGLVQPKGSLKLSCAASGFTFNTNAMNWVRQAPGKGLEWVARIRSKSNNYATYYADSVKDRFTISRDDTQSMIYLQMNNLKTEDTGMYYCVRGGSYWYFDVWGAGTTVTVSS
VL: DVLMTQTPLSLPVSLGDQASISCRSSQSIVNSNGNTYLEWYLQKPGQSPKLLIYKVSNRFSGVPDRFSGSGSGTDFTLKISRVEAEDLGVYYCFQGSHVPWTFGGGTKLEIK
notes: Control anti-PSGL-1 mAb, recombinant; only variable domains given; also called 9F6
In turn, B5 came in with an EC50 in assay [11] of 2.31 nM. Besides, the EC50Ala/EC50 wt in assay [9] is 10.8 fold.

B6: 43B6 (antibody, V domains shown)
VH: EVQLQQSGPDLVKPGALVKISCKASGYSFTAYYIHWVKQSHGKSLEWIGRVNPNTGGTSYNPKFKGKAILNVDKSSSTAYMELRSLTSEDSAVYYCARSGSPYYRYDDWGQGTTLTVSS
VL: ENVLTQSPAIMSASPGEKVTMTCRASSTVNSTYLHWFQQKSGASPKLWIYGSSNLASGVPARFSGSGSGTSYSLTISSVEAEDAATYYCQQYSGYPLTFGAGTTLELK
notes: Control anti-PSGL-1 mAb, recombinant; only variable domains given; also called 43B3
Regarding B6, the binding result in assay [11] is on record as “no binding”; in the assay with E58A, “binds”; in assay [3] it was “binds”; with E61A, “binds”; in the assay with Y48A it was “binds”; with P60A, “binds”. In addition, the binding result (with Q42A; with T44A; with P59A; in assay [4]; with E47A; with T57A) was “binds” each time. For the same molecule, the binding result (in assay [5]; with M62A) was “binds” each time. The same molecule came in with an EC50 in [8] of 2.63 nM. The “EC50 (read off the curve)” value with PSGL-1(49-56)-Biotin was approximately 0.4 nM. Further, in assay [10], the EC50Ala/EC50 wt is 12.2 fold.

The record behind these values is patent US20220396632A1 (VERSEAU THERAPEUTICS, published 2022).
